Test results from patent publication US20180043014A1.

Assays:
[1] = target: GPNMB (CG56972) on the surface of human tumor cell lines (human) (UniProt Q14956); experiment: flow cytometry, SF539 (printed SF549) cells, untreated, 24 h; background control
[2] = target: GPNMB (CG56972) on the surface of human tumor cell lines (human) (UniProt Q14956); experiment: flow cytometry, SF539 (printed SF549) cells, untreated, 12 h; background control
[3] = target: GPNMB (CG56972) on the surface of human tumor cell lines (human) (UniProt Q14956); experiment: flow cytometry on intact, non-permeabilized A375 melanoma cells, Treatment: None; primary antibody 10 ug/mL per methods, geometric mean fluorescence intensity
[4] = target: GPNMB (CG56972) on the surface of human tumor cell lines (human) (UniProt Q14956); experiment: flow cytometry, A375 cells, untreated, 12 h; background control
[5] = target: GPNMB (CG56972) on the surface of human tumor cell lines (human) (UniProt Q14956); experiment: flow cytometry, A375 cells, untreated, 48 h; background control
[6] = target: GPNMB (CG56972) on the surface of human tumor cell lines (human) (UniProt Q14956); experiment: flow cytometry, A375 cells, untreated, 24 h; background control
[7] = target: GPNMB (CG56972) on the surface of human tumor cell lines (human) (UniProt Q14956); experiment: flow cytometry, SKMEL2 cells, untreated; background control
[8] = target: GPNMB (CG56972) on the surface of human tumor cell lines (human) (UniProt Q14956); experiment: flow cytometry, SF539 (printed SF549) cells, untreated, 48 h; background control
[9] = target: GPNMB (CG56972) on the surface of human tumor cell lines (human) (UniProt Q14956); experiment: flow cytometry, WM2664 cells, untreated; background control

Chain of GPNMB (CG56972) on the surface of human tumor cell lines (human) (Q14956 23-492): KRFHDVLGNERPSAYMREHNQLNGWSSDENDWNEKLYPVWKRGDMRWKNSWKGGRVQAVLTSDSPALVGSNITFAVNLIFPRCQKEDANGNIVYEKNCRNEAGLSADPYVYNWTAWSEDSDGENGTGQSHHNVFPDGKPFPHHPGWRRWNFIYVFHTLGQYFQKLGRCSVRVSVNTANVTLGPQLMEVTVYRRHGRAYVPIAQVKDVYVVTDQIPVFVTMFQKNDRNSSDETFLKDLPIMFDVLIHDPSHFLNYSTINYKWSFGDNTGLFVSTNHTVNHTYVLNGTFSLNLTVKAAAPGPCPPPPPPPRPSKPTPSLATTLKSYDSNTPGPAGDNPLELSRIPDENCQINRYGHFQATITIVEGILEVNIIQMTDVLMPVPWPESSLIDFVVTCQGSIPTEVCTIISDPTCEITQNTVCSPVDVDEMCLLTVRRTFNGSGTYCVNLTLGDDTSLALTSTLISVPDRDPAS

GeoMean [1]: 8.7
GeoMean [2]: 8.2
GeoMean [3]: 8.4
GeoMean [4]: 7.4
GeoMean [5]: 7.8
GeoMean [6]: 7.5
GeoMean [7]: 6.9
GeoMean [8]: 9.5
GeoMean [9]: 7.3
Substance: unrelated human IgG2 isotype control monoclonal antibody
